Patent publication US12077763B2, “RNA-based control of powdery mildew” (Greenlight Biosciences, Inc., priority 2021, dated 2024)

Test system: E. necator
Assay: Leaf disc assay, dry inoculum (settling tower), decrease in disease severity / hyphal growth (Example 2)
Settings: decrease in disease severity (hyphal growth) relative to untreated control, value ± SE; for % decrease =/− SE TP1: time point 1 (untreated control hyphal growth ≥50%)

B1: GS3613 (nucleic acid)
sense: UGUAGCCGCAACAGUUUCAGCUGUCCCAGCUAGUCCUUCUGAUUGAAGUUUAUCAUUAGUAAUCCCUUUAGCGAUGGCGCCAUUAGUACCUUCGGUUGAGUUGCCAACAUUAGAUACUUCGCCAGCACCAUCAGAUACAUGUGUAGUUAAUUCUUCAGAGGUCUUGUCCGGACUAUCUAUUGCGAUCUUUACUGCAAUCUCACGACCUUGAACUUCUUUUCCAUUCAUUUCGGCAACAGCCCUAUUUUGAAGUUCAUUAGAUGCUAAGUUCACAAAGCCAAACCCACGGCCUUUCCGAGGUUCGUUGCGGGCCUGAAGCUUUUUAACCAUGAAUUUUGGAAUAGGACGCA
antisense: UGCGUCCUAUUCCAAAAUUCAUGGUUAAAAAGCUUCAGGCCCGCAACGAACCUCGGAAAGGCCGUGGGUUUGGCUUUGUGAACUUAGCAUCUAAUGAACUUCAAAAUAGGGCUGUUGCCGAAAUGAAUGGAAAAGAAGUUCAAGGUCGUGAGAUUGCAGUAAAGAUCGCAAUAGAUAGUCCGGACAAGACCUCUGAAGAAUUAACUACACAUGUAUCUGAUGGUGCUGGCGAAGUAUCUAAUGUUGGCAACUCAACCGAAGGUACUAAUGGCGCCAUCGCUAAAGGGAUUACUAAUGAUAAACUUCAAUCAGAAGGACUAGCUGGGACAGCUGAAACUGUUGCGGCUACA
  % decrease =/− SE TP1: 11 ± 3%

B2: GS3610 (nucleic acid)
sense: AUCAAACUGGGAGAGAUCAGAAACUAAGCUUGUGGAGCUGUGAAUCUUAACAGGGGUGUAAGCAUUUAGUUCCGAAACUCGUUGAGCUGAGACAAUAUCUCUAGGUUUUCCUAUAUCUUCUGGGUUAAGAAAGAAUUGAGAUGAUAGGUCAGCGAUAGUUGCGGGAGCGGGAUCGUAUAAUGUUAGACUUUUAACUCCAGCCAGAGCUAUAUUCUUAGCUAUUUCGAUACCAAGACCUUUCAAGCCAAUAAUAAGAAUAUUCGAUGCACUCAUUCGUUUCAUAGCCUCGUGUCCAAGAAC
antisense: GUUCUUGGACACGAGGCUAUGAAACGAAUGAGUGCAUCGAAUAUUCUUAUUAUUGGCUUGAAAGGUCUUGGUAUCGAAAUAGCUAAGAAUAUAGCUCUGGCUGGAGUUAAAAGUCUAACAUUAUACGAUCCCGCUCCCGCAACUAUCGCUGACCUAUCAUCUCAAUUCUUUCUUAACCCAGAAGAUAUAGGAAAACCUAGAGAUAUUGUCUCAGCUCAACGAGUUUCGGAACUAAAUGCUUACACCCCUGUUAAGAUUCACAGCUCCACAAGCUUAGUUUCUGAUCUCUCCCAGUUUGAU
  % decrease =/− SE TP1: 10 ± 6%
Time point 2
  % decrease =/− SE TP2: 5 ± 6%

B3: GS3612 (nucleic acid)
sense: AUGAGCUGGUCUUUCAGUGGAAUAUCUGUCAAUAUUACAGCUUGAUAUGAAUCAAACUGGGAGAGAUCAGAAACUAAGCUUGUGGAGCUGUGAAUCUUAACAGGGGUGUAAGCAUUUAGUUCCGAAACUCGUUGAGCUGAGACAAUAUCUCUAGGUUUUCCUAUAUCUUCUGGGUUAAGAAAGAAUUGAGAUGAUAGGUCAGCGAUAGUUGCGGGAGCGGGAUCGUAUAAUGUUAGACUUUUAACUCCAGCCAGAGCUAUAUUCUUAGCUAUUUCGAUACCAAGACCUUUCAAGCCAAUAAUAAGAAUAUUCGAUGCACUCAUUCGUUUCAUAGCCUCGUGUCCAAGAACGUAGAGUUGCCUACUGUAUAAAGACUCAUCGAUAACAUUAUUAUUUUCUU
antisense: AAGAAAAUAAUAAUGUUAUCGAUGAGUCUUUAUACAGUAGGCAACUCUACGUUCUUGGACACGAGGCUAUGAAACGAAUGAGUGCAUCGAAUAUUCUUAUUAUUGGCUUGAAAGGUCUUGGUAUCGAAAUAGCUAAGAAUAUAGCUCUGGCUGGAGUUAAAAGUCUAACAUUAUACGAUCCCGCUCCCGCAACUAUCGCUGACCUAUCAUCUCAAUUCUUUCUUAACCCAGAAGAUAUAGGAAAACCUAGAGAUAUUGUCUCAGCUCAACGAGUUUCGGAACUAAAUGCUUACACCCCUGUUAAGAUUCACAGCUCCACAAGCUUAGUUUCUGAUCUCUCCCAGUUUGAUUCAUAUCAAGCUGUAAUAUUGACAGAUAUUCCACUGAAAGACCAGCUCAU
  % decrease =/− SE TP1: 22 ± 6%
